Results: article PMC7579404, “A Novel KPC Variant KPC-55 in Klebsiella pneumoniae ST307 of Reinforced Meropenem-Hydrolyzing Activity” (Frontiers in Microbiology, 2020)

Assays:
[1] = system: CC(C)(O/N=C(\C(=O)N[C@@H]1C(=O)N2C(C(=O)[O-])=C(C[n+]3ccccc3)CS[C@H]12)c1csc(N)n1)C(=O)O; assay: purified protein; type: biochemical, Klebsiella pneumoniae; settings: 50 mM morpholinepropanesulfonic acid pH 7.0, 50 mM NaCl, 100 mM sodium phosphate pH 7.0, 30°C
[2] = system: CC(C)(O/N=C(\C(=O)N[C@@H]1C(=O)N2C(C(=O)[O-])=C(C[n+]3ccccc3)CS[C@H]12)c1csc(N)n1)C(=O)O; assay: purified protein; settings: 50 mM morpholinepropanesulfonic acid pH 7.0, 50 mM NaCl, 100 mM sodium phosphate pH 7.0, 30°C

Substance “KPC-2 (and its variant KPC-55 = KPC-2 Y264N) (Klebsiella pneumoniae)” has a Km [1] of 0.28 ± 0.09 µM, a kcat [1] of 0.02 ± 0.003 s⁻¹ and a kcat/Km [1] of 70000 ± 20000 M⁻¹ s⁻¹.
In the case of “KPC-2 (and its variant KPC-55 = KPC-2 Y264N) (Klebsiella pneumoniae; Y262N)”, the Km [2] is reported as 0.40 ± 0.11 µM, the kcat [2] is reported as 0.2 s⁻¹ and the kcat/Km [2] is reported as 450000 M⁻¹ s⁻¹.
